The numbers were not newly measured in article PMC11544004, which cites them from elsewhere.

The target of data set [1] is CD86 (Homo sapiens) (UniProt P42081).
The target of data set [2] is CD80 (Homo sapiens) (UniProt P33681).
For data set [3], the target named is PVR (CD155) (Homo sapiens) (UniProt P15151).
Chain of UniProt P15151 (P15151 21-343): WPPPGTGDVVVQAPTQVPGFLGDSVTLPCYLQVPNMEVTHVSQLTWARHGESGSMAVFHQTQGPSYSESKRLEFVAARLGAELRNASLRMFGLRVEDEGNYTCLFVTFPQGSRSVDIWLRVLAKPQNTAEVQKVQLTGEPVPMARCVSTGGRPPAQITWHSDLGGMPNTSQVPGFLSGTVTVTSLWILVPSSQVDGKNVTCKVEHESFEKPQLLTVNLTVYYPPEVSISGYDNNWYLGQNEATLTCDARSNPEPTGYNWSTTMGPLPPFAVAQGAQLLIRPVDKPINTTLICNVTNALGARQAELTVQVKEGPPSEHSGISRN

Chain of UniProt P33681 (P33681 35-242): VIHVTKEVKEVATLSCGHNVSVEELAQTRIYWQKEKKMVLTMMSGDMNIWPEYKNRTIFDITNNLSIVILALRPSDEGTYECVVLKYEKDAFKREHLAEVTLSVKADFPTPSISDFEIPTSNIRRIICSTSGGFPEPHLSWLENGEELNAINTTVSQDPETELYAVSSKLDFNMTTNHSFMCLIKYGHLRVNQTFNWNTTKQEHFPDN
Chain of UniProt P42081 (P42081 24-247): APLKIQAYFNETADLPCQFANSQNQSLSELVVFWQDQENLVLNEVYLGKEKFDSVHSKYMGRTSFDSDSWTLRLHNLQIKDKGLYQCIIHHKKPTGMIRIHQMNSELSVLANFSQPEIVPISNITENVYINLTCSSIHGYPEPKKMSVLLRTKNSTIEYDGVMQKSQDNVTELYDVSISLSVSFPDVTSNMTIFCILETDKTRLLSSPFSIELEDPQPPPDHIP

With CD28 (from UniProt P10747), the Kd in data set [1] was 20 µM; in data set [2] it was 4 µM.
On to TIGIT (from UniProt Q495A1), for which the Kd in data set [3] is 0.002 µM.
